Patent EP4714976A1
Residue numbers refer to the chain shown, from its start.

B1: 3E2 scFv-Fc (Fc fusion)
chain: EIQLQQSGAELVKPGASVKMSCKASGYTFSFYNMHWVKRTPGQGLEWIGLIYPDNGDTSYNQKFKGKATLTADTSSSTAYMQLSSLTSEDSAVYYCARGGLDYWGQGTSLTVSSGGGGSGGGGSGGGGSNIVMTQSQKFMSTSVGDRVSVTCKASQNVGTNVAWYQQKPGQSPKALIYSASYRYTGVPDRFTGSGSGTDFTFTISSVQAEDLAVYYCQQHYSTPYTFGGGTKLEIKESKYGPPCPPCPAPEAAGGPSVFLFPPKPKDTLMISRTPEVTCVVVDVSQEDPEVQFNWYVDGVEVHNAKTKPREEQFNSTYRVVSVLTVLHQDWLNGKEYKCKVSNKGLPSSIEKTISKAKGQPREPQVYTLPPSQEEMTKNQVSLTCLVKGFYPSDIAVEWESNGQPENNYKTTPPVLDSDGSFFLYSKLTVDKSRWQEGNVFSCSVMHEALHNHYTQKSLSLSLG
B2: 3E1 scFv-Fc (Fc fusion)
chain: QVQLQQPGAEVVKPGASVKMSCKASGYTFTDYYIHWVKQTPGQGLEWIGAIYPDNGDTSYNQKFKVKATLTADKSSSTAYMQLSSLTSEDSAVYYCARAFTYWGQGTLVTVSAGGGGSGGGGSGGGGSDILITQSPASLSASVGETVTITCGASENIYGALNWYQRKQGKSPQLLIYGATNLADGMSSRFSGSGSGRQYSLKISSLHPDDVATYYCQNVLSTPYTFGGGTKLEIKESKYGPPCPPCPAPEAAGGPSVFLFPPKPKDTLMISRTPEVTCVVVDVSQEDPEVQFNWYVDGVEVHNAKTKPREEQFNSTYRVVSVLTVLHQDWLNGKEYKCKVSNKGLPSSIEKTISKAKGQPREPQVYTLPPSQEEMTKNQVSLTCLVKGFYPSDIAVEWESNGQPENNYKTTPPVLDSDGSFFLYSKLTVDKSRWQEGNVFSCSVMHEALHNHYTQKSLSLSLG
B3: 3A3 scFv-Fc (Fc fusion)
chain: QVQLQQSGAELVKPGASVKMSCKASGYTFTTYNIHWVRQTPGQGLEWIGLIYPDNGDTSYNQKFKAKATLTADKSSSTAYMHLSSLTSEDSAVYYCARGGFDYWGQGTTLTVSSGGGGSGGGGSGGGGSDIVMTQSHKFMSTSVGDRVSITCKASQDVNTDVSWYQQKPGQSPKLLIYSASYRYTGVPTRFTGSGSGTDFTFTISGVQAEDLADYYCQQHYNTPYTFGGGTRLEIKESKYGPPCPPCPAPEAAGGPSVFLFPPKPKDTLMISRTPEVTCVVVDVSQEDPEVQFNWYVDGVEVHNAKTKPREEQFNSTYRVVSVLTVLHQDWLNGKEYKCKVSNKGLPSSIEKTISKAKGQPREPQVYTLPPSQEEMTKNQVSLTCLVKGFYPSDIAVEWESNGQPENNYKTTPPVLDSDGSFFLYSKLTVDKSRWQEGNVFSCSVMHEALHNHYTQKSLSLSLG
B4: 3D6 scFv displayed on phage (scFv)
scFv: QVQLQQSGAELVKPGASVKMSCKASGYTFRYYNMHWVKRTPGQGLEWIGLIYPDNGDTSYNQKFKGKATLTADTSSSTAYMQLSSLTSEDSAVYYCARGGLDYWGQGTSLTVSSGGGGSGGGGSGGGGSDIQMTQSPASLSVSVGETVTITCRASENIYSNLAWYQQKQGKSPQLLVYNAKTLADGVPSRFSGSGSGTQYSLKINSLQPEDFGSYYCQHFWSTPFTFGSGTKLELK
B5: 1C10 scFv-Fc (Fc fusion)
chain: QVQLQQSGAELVKPGASVKMSCKASGYTFRYYNMHWVKRTPGQGLEWIGLIYPDNGDTSYNQKFKGKATLTADTSSSTAYMQLSSLTSEDSAVYYCARGGLDYWGQGTSLTVSSGGGGSGGGGSGGGGSDIVMTQSPASLSASVGETVTITCRASGNIHNYLAWYQQKQGKSPQLLVYNAKTLADGVPSRFSGSGSGTQYSLKINSLQPEDFGSYYCQHFWSTPYTFGGGTKLEMKESKYGPPCPPCPAPEAAGGPSVFLFPPKPKDTLMISRTPEVTCVVVDVSQEDPEVQFNWYVDGVEVHNAKTKPREEQFNSTYRVVSVLTVLHQDWLNGKEYKCKVSNKGLPSSIEKTISKAKGQPREPQVYTLPPSQEEMTKNQVSLTCLVKGFYPSDIAVEWESNGQPENNYKTTPPVLDSDGSFFLYSKLTVDKSRWQEGNVFSCSVMHEALHNHYTQKSLSLSLG
B6: 3H9 scFv-Fc (Fc fusion)
chain: EIQLQQSGAELVKPGASVKMSCKASGYTFSFYNMHWVKRTPGQGLEWIGLIYPDNGDTSYNQKFKGKATLTADTSSSTAYMQLSSLTSEDSAVYYCARGGLDYWGQGTTLTVSSGGGGSGGGGSGGGGSDIVLTQSPASLSVSVGETVTITCRASENIYSNLAWYQQKQGKSPQLLVYAATNLADGVPSRFSGSGSGTQYSLKINSLQSEDFGSYYCQHFWGTPYTFGGGTKLELKESKYGPPCPPCPAPEAAGGPSVFLFPPKPKDTLMISRTPEVTCVVVDVSQEDPEVQFNWYVDGVEVHNAKTKPREEQFNSTYRVVSVLTVLHQDWLNGKEYKCKVSNKGLPSSIEKTISKAKGQPREPQVYTLPPSQEEMTKNQVSLTCLVKGFYPSDIAVEWESNGQPENNYKTTPPVLDSDGSFFLYSKLTVDKSRWQEGNVFSCSVMHEALHNHYTQKSLSLSLG
B7: 2B2 scFv-Fc (Fc fusion)
chain: QLQLQQSGAELVKPGASVKMSCKASGYTFASYNLHWVKQTPGQGLEWIGLIYPENGDTSYNQKFKDKATLTADKSSTTAYIQLSSLASEDSAVYFCARGGFDYWGQGTTLTVSSGGGGSGGGGSGGGGSDIVMTQSQKFMSTSVGDRVSVTCKASQNVGTNVAWYQQKPGQSPKALIYSASYRYSGVPDRFTGSGSGTDYTLTISSVQAEDLALYYCQQHYSTPYTFGGGTKLELKESKYGPPCPPCPAPEAAGGPSVFLFPPKPKDTLMISRTPEVTCVVVDVSQEDPEVQFNWYVDGVEVHNAKTKPREEQFNSTYRVVSVLTVLHQDWLNGKEYKCKVSNKGLPSSIEKTISKAKGQPREPQVYTLPPSQEEMTKNQVSLTCLVKGFYPSDIAVEWESNGQPENNYKTTPPVLDSDGSFFLYSKLTVDKSRWQEGNVFSCSVMHEALHNHYTQKSLSLSLG
B8: 1D7 scFv-Fc (Fc fusion)
chain: QIQLQQSGAELVKPGASVKMSCKASGYTFRYYNMHWVKRTPGQGLEWIGLIYPDNGDTSYNQKFKGKATLTADTSSSTAYMQLSSLTSEDSAVYYCARGGLDYWGQGTSLTVSSGGGGSGGGGSGGGGSDIQMTQSPSSMSASLGDRITITCQATQDIVKNLNWYQQKPGKPPSFLIYYATELAEGVPSRFSGSGSGSDYSLTISNLESEDFADYYCLQFYEFPLTFGAGTKLELKESKYGPPCPPCPAPEAAGGPSVFLFPPKPKDTLMISRTPEVTCVVVDVSQEDPEVQFNWYVDGVEVHNAKTKPREEQFNSTYRVVSVLTVLHQDWLNGKEYKCKVSNKGLPSSIEKTISKAKGQPREPQVYTLPPSQEEMTKNQVSLTCLVKGFYPSDIAVEWESNGQPENNYKTTPPVLDSDGSFFLYSKLTVDKSRWQEGNVFSCSVMHEALHNHYTQKSLSLSLG
B9: 1B8 scFv-Fc (Fc fusion)
chain: QIQLQQSGAELVKPGASVKMSCKASGYTFASYNLHWVKQTPGQGLEWIGLIYPENGDTSYNQKFKGKATLTADTSSTTAYIQLSSLTSEDSAVYFCARGGFDYWGQGTSLTVSSGGGGSGGGGSGGGGSDIKMTQSPASLSASVGETVTITCGASENIYGALNWYQRKQGKSPQLLIYGATNLADGMSSRFSGSGSGRQYSLKISSLHPDDVATYYCQNVLSTPYTFGGGTKLEIKESKYGPPCPPCPAPEAAGGPSVFLFPPKPKDTLMISRTPEVTCVVVDVSQEDPEVQFNWYVDGVEVHNAKTKPREEQFNSTYRVVSVLTVLHQDWLNGKEYKCKVSNKGLPSSIEKTISKAKGQPREPQVYTLPPSQEEMTKNQVSLTCLVKGFYPSDIAVEWESNGQPENNYKTTPPVLDSDGSFFLYSKLTVDKSRWQEGNVFSCSVMHEALHNHYTQKSLSLSLG
B10: 3F11 scFv-Fc (Fc fusion)
chain: QVQLQQSGAELVKPGASVKMSCKASGYTFAPYNIHWVRQTPGQGLEWIGLIYPDNGDTSYNQKFKAKATLTADKSSSTAYMQLSSLTSEDSAVYYCARGGFDYWGQGTSLTVSSGGGGSGGGGSGGGGSDIVMTQSQKFMSTSVGDRVSVTCKASQNVGTNVAWYQQKPGQSPKALIYSASYRYSGVPDRFTGSGSGTDFTLTISNVQSEDLAEYFCQQHYSTPFTFGSGTKLEIKESKYGPPCPPCPAPEAAGGPSVFLFPPKPKDTLMISRTPEVTCVVVDVSQEDPEVQFNWYVDGVEVHNAKTKPREEQFNSTYRVVSVLTVLHQDWLNGKEYKCKVSNKGLPSSIEKTISKAKGQPREPQVYTLPPSQEEMTKNQVSLTCLVKGFYPSDIAVEWESNGQPENNYKTTPPVLDSDGSFFLYSKLTVDKSRWQEGNVFSCSVMHEALHNHYTQKSLSLSLG
B11: 3B4 scFv-Fc (Fc fusion)
chain: EVQLQQSGADLVKPGASVKMSCKASGYTFSYYNMHWVRRTPGQGLEWIGLIYPDNGDTSYNQKFKGKATLTADTSSSTAYMQLSSLTSEDSAVYYCARGGLDYWGQGTTLTVSSGGGGSGGGGSGGGGSDIQMIQSPASMSASVGETVTITCGASENIYGALNWYQRKQGKSPQLLIYGATNLADGMSSRFSGSGSGRQYSLKISSLHPDDVATYYCQNVLSTPYTFGGGTKLEMKESKYGPPCPPCPAPEAAGGPSVFLFPPKPKDTLMISRTPEVTCVVVDVSQEDPEVQFNWYVDGVEVHNAKTKPREEQFNSTYRVVSVLTVLHQDWLNGKEYKCKVSNKGLPSSIEKTISKAKGQPREPQVYTLPPSQEEMTKNQVSLTCLVKGFYPSDIAVEWESNGQPENNYKTTPPVLDSDGSFFLYSKLTVDKSRWQEGNVFSCSVMHEALHNHYTQKSLSLSLG
B12: 3B7 scFv-Fc (Fc fusion)
chain: B11 chain with D10E, S30R, R38K, L101F, I134T, M140L, M235L

Key:
[1] = molecular target: recombinant mouse FGFR2b (mouse) (UniProt P21803); assay: ELISA, antibody 1ug/mL
Sequence of recombinant mouse FGFR2b (mouse) (P21803 22-377): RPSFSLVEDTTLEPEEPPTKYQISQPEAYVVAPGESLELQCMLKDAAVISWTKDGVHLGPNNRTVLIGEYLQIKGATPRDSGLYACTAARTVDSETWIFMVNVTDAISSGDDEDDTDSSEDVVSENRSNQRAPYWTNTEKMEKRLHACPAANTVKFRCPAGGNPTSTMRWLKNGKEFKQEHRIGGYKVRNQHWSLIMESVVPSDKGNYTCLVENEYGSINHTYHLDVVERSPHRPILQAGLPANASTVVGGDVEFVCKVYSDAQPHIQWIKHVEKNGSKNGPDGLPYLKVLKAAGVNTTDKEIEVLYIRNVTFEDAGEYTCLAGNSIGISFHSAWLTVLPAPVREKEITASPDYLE

FGFR1 (acro) = FGFR1 (acro) (UniProt P11362); assay: ELISA, antibody 10 µg/mL
Sequence of FGFR1 (acro) (P11362 22-376): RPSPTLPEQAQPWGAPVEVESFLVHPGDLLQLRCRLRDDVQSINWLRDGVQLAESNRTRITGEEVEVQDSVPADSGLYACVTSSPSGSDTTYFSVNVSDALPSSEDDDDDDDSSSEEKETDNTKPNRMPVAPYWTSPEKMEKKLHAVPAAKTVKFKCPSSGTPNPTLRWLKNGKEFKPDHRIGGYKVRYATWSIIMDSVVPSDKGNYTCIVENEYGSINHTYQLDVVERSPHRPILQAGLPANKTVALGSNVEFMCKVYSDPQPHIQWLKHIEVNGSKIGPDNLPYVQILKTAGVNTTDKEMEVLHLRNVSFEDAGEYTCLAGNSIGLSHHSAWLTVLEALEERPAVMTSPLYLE

[2] = molecular target: recombinant mouse FGFR2b (mouse) (UniProt P21803); assay: BLI, antibody on AHC2 sensor
[3] = molecular target: extracellular domain of FGFR2c protein (Example 1) (UniProt P21802); assay: phage ELISA
Sequence of extracellular domain of FGFR2c protein (Example 1) (P21802 22-377): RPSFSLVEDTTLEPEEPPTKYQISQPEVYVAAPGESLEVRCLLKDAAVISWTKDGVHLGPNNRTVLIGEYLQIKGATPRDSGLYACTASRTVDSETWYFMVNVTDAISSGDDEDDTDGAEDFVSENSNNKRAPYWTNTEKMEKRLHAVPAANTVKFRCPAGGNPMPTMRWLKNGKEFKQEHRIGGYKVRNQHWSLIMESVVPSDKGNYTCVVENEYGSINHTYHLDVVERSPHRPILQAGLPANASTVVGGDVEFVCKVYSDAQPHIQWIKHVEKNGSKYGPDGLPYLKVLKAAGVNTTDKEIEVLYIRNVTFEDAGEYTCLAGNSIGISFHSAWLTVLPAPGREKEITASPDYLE

[4] = molecular target: extracellular domain of the FGFR2b protein (NP_075259.4) (UniProt P21802); assay: phage ELISA
Sequence of extracellular domain of the FGFR2b protein (NP_075259.4) (P21802 other isoform, or with tags, fused parts or gaps): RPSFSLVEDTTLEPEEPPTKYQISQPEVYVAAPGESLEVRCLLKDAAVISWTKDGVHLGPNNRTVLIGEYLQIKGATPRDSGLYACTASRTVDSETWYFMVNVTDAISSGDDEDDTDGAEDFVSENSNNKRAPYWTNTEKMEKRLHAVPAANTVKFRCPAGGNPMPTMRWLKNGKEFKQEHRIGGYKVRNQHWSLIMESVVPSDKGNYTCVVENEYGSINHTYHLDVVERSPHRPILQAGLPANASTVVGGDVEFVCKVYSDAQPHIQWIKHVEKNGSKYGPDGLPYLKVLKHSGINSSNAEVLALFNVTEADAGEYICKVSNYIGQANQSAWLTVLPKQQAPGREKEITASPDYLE

Binder | OD (450 nm) value [1] | OD (450 nm) value (FGFR1 (acro)) | Kd [2] [nM] | koff [2] [s⁻¹] | kon [2] [M⁻¹ s⁻¹] | OD (450 nm) value [3] | OD (450 nm) value [4]
B1 | 2.96 | 0.122 | 36.5 | 0.00152 | 41800 |  | 
B2 | 2.92 | 0.08 | 21.8 | 0.00126 | 57800 |  | 
B3 | 2.63 | 0.097 | 39.6 | 0.00122 | 30800 |  | 
B4 |  |  |  |  |  | 0.037 | 1.92
B5 | 2.94 | 0.626 | 75.6 | 0.00216 | 28600 |  | 
B6 | 2.99 | 0.646 | 23.8 | 0.00129 | 54200 |  | 
B7 | 3.09 | 0.109 | 53.5 | 0.00235 | 43900 |  | 
B8 | 3.04 | 0.074 | 27.6 | 0.00117 | 42500 |  | 
B9 | 2.01 | 0.092 | 74.9 | 0.0048 | 64000 |  | 
B10 | 2.92 | 0.1 | 26 | 0.0015 | 57800 |  | 
B11 | 2.88 | 0.458 | 27.3 | 0.0015 | 54900 |  | 
B12 | 2.97 | 0.083 | 33.9 | 0.00172 | 50700 |  | 
